Experimental data: patent US20230174596A1 (published 2023)
Changes are numbered by the printed parent chain.

T1: human VEGF-A (human, UniProt P15692-4 34-135, limits assumed)
T1 sequence (looked up): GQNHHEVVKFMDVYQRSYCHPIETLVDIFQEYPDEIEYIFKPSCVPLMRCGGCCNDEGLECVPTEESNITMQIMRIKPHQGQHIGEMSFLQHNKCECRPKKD

T2: hVEGF-A (8-109) (human, UniProt P15692 214-315)
T2 construct: residue numbers count on mature VEGF-A; dimer
T2 sequence (looked up): T1 sequence (looked up)

B1: LRP6_CKP20 (designed binder)
chain: GCENRTKGCKQDSDCLAGCVCGFRGTCG
B2: LRP6_CKP17 (designed binder)
chain: GCSNYVKRCKQDSDCLAGCVCSPGGRCG
B3: LRP6_CKP2 (designed binder)
chain: GCVNRVRGCKQDSDCLAGCVCSGGRDCG
B4: LRP6_CKP18 (designed binder)
chain: GCRANRVSGRCKQDSDCLAGCVCGPNGFCG
B5: LRP6_CKP12 (designed binder)
chain: GCRSNKLREARGCKQDSDCLAGCVCGSRQDCG
B6: LRP6_CKP8 (designed binder)
chain: GCRGNIIKCKQDSDCLAGCVCNESRGCG
B7: LRP6_CKP19 (designed binder)
chain: GCSNRVKVRACKQDSDCLAGCVCGPNGFCG
B8: LRP6_CKP21 (designed binder)
chain: GCGNKIRACKQDSDCLAGCVCRDRVGCG
B9: LRP6_CKP10 (designed binder)
chain: GCASSNSIRQGWCKQDSDCLAGCVCGPKSNCG
B10: LRP6_CKP15 (designed binder)
chain: GCNRIRNSCKQDSDCLAGCVCGRGDYCG
B11: LRP6_CKP1 (designed binder)
chain: B4 chain with A4T, S8K, R10G
B12: LRP6_CKP14 (designed binder)
chain: GCGSNKIRPRCKQDSDCLAGCVCGPNDFCG
B13: LRP6_CKP13 (designed binder)
chain: GCVNSVKRCKQDSDCLAGCVCSRGVNCG
B14: LRP6_CKP5 (designed binder)
chain: GCVNKIKGCKQDSDCLAGCVCGVEGRCG
B15: LRP6_CKP6 (designed binder)
chain: GCRNSIKRCKQNSDCLAGCVCSVGHGCG
B16: LRP6_CKP16 (designed binder)
chain: GCSRNSIKCKQDSDCLAGCVCASGSSCG
B17: LRP6_CKP22 (designed binder)
chain: GCANRVKRTSCKQDSDCLAGCVCGPNGFCG
B18: LRP6_CKP9 (designed binder)
chain: GCRSGNTIRKRECKQDSDCLAGCVCGGPGGCG
B19: LRP6_CKP4 (designed binder)
chain: GCRSVNKICKQDSDCLAGCVCGSSRNCG
B20: LRP6_CKP7 (designed binder)
chain: GCVSNRVNKGCKQDSDCLAGCVCGPNGFCG
B21: LRP6_CKP11 (designed binder)
chain: GCRSNRIRCKQDSDCLAGCVCYGHGDCG
B22: LRP6_CKP3 (designed binder)
chain: GCMNHVKARRCKQDSDCLAGCVCGPNGFCG
B23: VEGF_CKP9.54.90.25 (designed binder)
chain: GCNIMLPFWGCGRDFECMQTCICQYYQSCG
B24: VEGF_CKP9.54.90.12 (designed binder)
chain: B23 chain with Q19S, T20D
B25: VEGF_CKP9.54.90.13 (designed binder)
chain: B23 chain with Q19N, T20Q
B26: VEGF_CKP3 (designed binder)
chain: GCHMMYDYCKQDSDCLAGCVCEMYDACG
B27: 9.63-4 (designed binder)
chain: GCDVMQPYWGCEMDFDCLAGCICHWYNSCGFS
B28: 9.63.44-7 (designed binder)
chain: B27 chain with I22V, F31G, S32I
B29: 9.63-20 (designed binder)
chain: B27 chain with F31Q, S32V
B30: 9.63.44-8 (designed binder)
chain: B27 chain with F31T
B31: 9.63.44-9 (designed binder)
chain: B27 chain with F31L, S32Q
B32: 9.63-67 (designed binder)
chain: B27 chain with I22V, F31G, S32I
B33: 9.63-22 (designed binder)
chain: B27 chain with F31Y, S32A
B34: 9.63.44-10-A (designed binder)
chain: B27 chain with I22V, F31G, S32I
B35: 9.63.44-12 (designed binder)
chain: B27 chain with I22V, F31P, S32L
B36: 9.63-25 (designed binder)
chain: B27 chain with F31S, S32R
B37: 9.63-79 (designed binder)
chain: B27 chain with F31L, S32Q
B38: 9.63-70 (designed binder)
chain: B27 chain with I22V, F31P, S32L
B39: 9.63-72 (designed binder)
chain: B27 chain with F31T
B40: 9.63.44-2 (designed binder)
chain: B27 chain with F31Q, S32V
B41: 9.63.44-1 (designed binder)
chain: B27 chain
B42: 9.63.44-10 (designed binder)
chain: B27 chain with A19V, I22V, F31D, S32E
B43: 9.63.44-3 (designed binder)
chain: B27 chain with F31Y, S32A
B44: 9.63.44-13 (designed binder)
chain: B27 chain with I22V, F31Q, S32F
B45: 9.63.44-4 (designed binder)
chain: B27 chain with F31S, S32R
B46: VEGF_CKP7.73 (designed binder)
chain: GCRDLTINWALFCKQDSDCLAGCVCQMFNSCG
B47: VEGF_CKP7.88 (designed binder)
chain: GCQDPKLNWAVYCKQDSDCLAGCVCQLFNSCG
B48: VEGF_CKP7.81 (designed binder)
chain: GCLDPTVNWALFCKQDSDCLAGCVCQHYKTCG
B49: VEGF_CKP7.35 (designed binder)
chain: GCQDPTFNWAEYCKQDSDCLAGCVCQMYQSCG
B50: VEGF_CKP7.43 (designed binder)
chain: B49 chain with F7L, E11T
B51: VEGF_CKP7.50 (designed binder)
chain: B49 chain with T6S, F7L, E11D, Y28H
B52: VEGF_CKP7.57 (designed binder)
chain: GCLDPSFNWSLYCKQDSDCLAGCVCQMYDSCG
B53: LRP6_CKP7.89 (designed binder)
chain: B52 chain with N8D, S10A, M27L, D29N
B54: VEGF_CKP7.54 (designed binder)
chain: GCLDRTLNWALYCKQDSDCLAGCVCQMYNSCG
B55: VEGF_CKP7.78 (designed binder)
chain: GCKDTTFNWGLFCKQDSDCLAGCVCQLYQSCG

molecular target: LRP6 E1E2 protein (human) (UniProt O75581); experiment: spot phage ELISA
Sequence (O75581 20-630 limits assumed): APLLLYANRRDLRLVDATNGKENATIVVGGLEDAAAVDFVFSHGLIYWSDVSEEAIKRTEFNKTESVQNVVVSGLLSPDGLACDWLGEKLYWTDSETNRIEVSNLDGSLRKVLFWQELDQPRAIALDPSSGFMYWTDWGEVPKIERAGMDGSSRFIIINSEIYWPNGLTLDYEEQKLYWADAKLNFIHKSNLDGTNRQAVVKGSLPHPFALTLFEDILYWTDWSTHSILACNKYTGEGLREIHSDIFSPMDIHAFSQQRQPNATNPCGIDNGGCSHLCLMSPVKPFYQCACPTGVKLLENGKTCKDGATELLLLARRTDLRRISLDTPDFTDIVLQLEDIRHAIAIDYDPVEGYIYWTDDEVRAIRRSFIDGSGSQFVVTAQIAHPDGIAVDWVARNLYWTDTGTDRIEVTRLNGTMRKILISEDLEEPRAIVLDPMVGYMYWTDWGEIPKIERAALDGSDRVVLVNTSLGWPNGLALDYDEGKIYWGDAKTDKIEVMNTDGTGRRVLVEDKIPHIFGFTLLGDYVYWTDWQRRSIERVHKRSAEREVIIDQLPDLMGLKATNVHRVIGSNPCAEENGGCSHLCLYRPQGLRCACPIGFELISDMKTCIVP

Binder	ELISA	S/N
B1	3.1	38.7
B2	3.09	35.9
B3	3.41	41.6
B4	1.67	18.3
B5	0.6	6.78
B6	3.23	37.6
B7	3.27	42
B8	2.8	33.7
B9	3.29	37.4
B10	2.03	26.3
B11	3.23	45.5
B12	3.18	43.5
B13	3.28	37.8
B14	3.04	35.7
B15	–	37.4
B16	3.36	31.1
B17	3.43	42.9
B18	2.97	37.6
B19	2.82	25.4
B20	3.3	29
B21	2.65	36.8
B22	2.93	40.2

molecular target: T1, human VEGF-A; experiment: cell-based or functional assay

Binder	Cellular IC50 [nM]	fold improvement relative to variant 9.54.90 (cellular IC50) [fold]
B23	1.26	1.07
B24	1.2	1.12
B25	0.96	1.41

molecular target: T2, hVEGF-A (8-109); experiment: spot phage ELISA

Binder	ELISA	S/N	binding result
B26	3.1	42.9	–
B27	–	–	binds
B28	–	–	binds
B29	–	–	binds
B30	–	–	binds
B31	–	–	binds
B32	–	–	binds
B33	–	–	binds
B34	–	–	binds
B35	–	–	binds
B36	–	–	binds
B37	–	–	binds
B38	–	–	binds
B39	–	–	binds
B40	–	–	binds
B41	–	–	binds
B42	–	–	binds
B43	–	–	binds
B44	–	–	binds
B45	–	–	binds
B46	1.2	19.2	–
B47	0.5	7.7	–
B48	1.1	18.6	–
B49	0.6	10.6	–
B50	0.5	6.3	–
B51	0.8	14.3	–
B52	1	17.4	–
B53	0.5	8.1	–
B54	0.5	9.3	–
B55	0.7	11.8	–
